This note sets out measurements from paper PMC7793301, “Assembly of infectious enteroviruses depends on multiple, conserved genomic RNA-coat protein contacts” (PLoS Pathogens, 2020).

To fix the notation:
T1: EV-E capsid protein VP1 (enterovirus-E (EV-E), UniProt P12915 560-840)
T1 construct: VP1, cut product of the enterovirus-E (formerly bovine enterovirus) polyprotein; genome NC_001859; numbers count on: the mature VP1; The N-terminal arm is not fully built in the model; source: EV-E propagated in BHK cells; virions purified (sucrose cushion, sucrose gradient)
T1 sequence: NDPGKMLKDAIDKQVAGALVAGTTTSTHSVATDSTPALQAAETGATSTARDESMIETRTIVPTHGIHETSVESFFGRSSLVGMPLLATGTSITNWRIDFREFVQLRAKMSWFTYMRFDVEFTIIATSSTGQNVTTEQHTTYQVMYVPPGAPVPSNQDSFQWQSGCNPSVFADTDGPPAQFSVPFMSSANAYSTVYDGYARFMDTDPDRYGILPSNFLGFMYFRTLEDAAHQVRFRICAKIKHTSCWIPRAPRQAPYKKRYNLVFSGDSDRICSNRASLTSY

B1: EV-E capsid protein VP2 (natural protein)
chain: SPSAEACGYSDRVAQLTLGNSTITTQEAANICVAYGCWPAKLSDTDATSVDKPTEPGVSADAFYTLRSKPWQADSKGWYWKLPDALNNTGMFGQNAQFHYIYRGGWAVHVQCNATKFHQGTLLVLAIPEHQIATQEQPAFDRTMPGSEGGTFQEPFWLEDGTSLGNSLIYPHQWINLRTNNSATLILPYVNAIPMDSAIRHSNWTLAIIPVAPLKYAAETTPLVPITVTIAPMETEYNGLRRAIASNQ
notes: VP2, cut product of VP0 of the enterovirus-E polyprotein; genome NC_001859; modelled from residue Y9; numbers count on: the mature VP2; source: EV-E propagated in BHK cells; virions purified (sucrose cushion, sucrose gradient)
B2: EV-E capsid protein VP3 (natural protein)
chain: GLPTKPGPGSYQFMTTDEDCSPCILPDFQPTLEIFIPGKVNNLLEIAQVESILEANNREGVEGVERYVIPVSVQDALDAQIYALRLELGGSGPLSSSLLGTLAKHYTQWSGSVEITCMFTGTFMTTGKVLLAYTPPGGDMPRNREEAMLGTHVVWDFGLQSSITLVIPWISASHFRGVSNDDVLNYQYYAAGHVTIWYQTNMVIPPGFPNTAGIIMMIAAQPNFSFRIQKDREDMTQTAILQ
notes: VP3, cut product of the enterovirus-E polyprotein; genome NC_001859; numbers count on: the mature VP3; source: EV-E propagated in BHK cells; virions purified (sucrose cushion, sucrose gradient)

One assay addresses T1, EV-E capsid protein VP1. Description: cryo-EM structure; purified EV-E virions in PBS; single particle analysis with icosahedral symmetry, ~2.2 Å; also symmetry expansion and focused classification. To be noted: both partners purified.
The assay “EV-E capsid protein VP2” concerns the target B1. The assay is described as above. To be noted: both partners purified.

Turning to B1, the binding result with EV-E capsid protein VP1 was “binds”.

As to B2, the binding result with EV-E capsid protein VP2 and with EV-E capsid protein VP1 was “binds” each time.
